Measurements reported in PMC4876437, “Novel application of hydrophobin in medical science: a drug carrier for improving serum stability” (Scientific Reports, 2016).
Values belong to the substance of their own block, whether it stands above or below them.

Key:
[1] = Stabilization (serum stability / pharmacokinetic) study: circulating free GLP-1 in rats by GLP-1 (7-37) ELISA; type: in vivo; conditions: Wistar rats, s.c., 500 μg GLP-1/kg, n = 6 per group
Protocol: The stabilities of wild-type hydrophobin/GLP-1 and hydrophobin E24K/GLP-1 complexes were investigated to determine whether the complex protects GLP-1 against protease degradation. Two complexes, hydrophobin/GLP-1 (pH 7.0, molar ratio of 1:10) and hydrophobin E24K/GLP (pH 4.0, molar ratio of 1:10) were administered subcutaneously to male Wistar rats (500 μg GLP-1/kg body weight, n = 6 per group), and blood samples from the rats were directly drawn into P700*, K2EDTA tubes (BD Biosciences, Franklin Lakes, NJ) by venipuncture at 0.5, 1, 4, 12, 24, 48, 72 and 96 h. Serum samples (200 μl) were immediately analyzed using a native GLP-1 (7-37) ELISA kit after being centrifuged for 20 min at 13,000 rpm. The amount of free GLP-1 measured in this assay was considered an indicator of the serum serum stability of the complex.

[2] = test system: insulin secretion; assay: Insulin stimulation assay after oral glucose administration; type: in vivo; conditions: Wistar rats, s.c. 100 μg GLP-1/kg 30 min before oral glucose 10 g/kg, n = 3 per group, mean ± SE
Protocol: The insulin secretion assay was performed by injecting the complex (100 μg GLP-1/kg body weight) into male Wistar rats (n = 3 per group). Wild-type GLP-1 (100 μg/kg body weight) and saline were injected subcutaneously as controls. Glucose (10 g/kg body weight, a standard dose for oral glucose administration) was orally administered 30 min after injections of the complexes. […] Blood samples were assayed for insulin levels using a rat insulin RIA kit.

[3] = test system: INS-1 cells; assay: cAMP accumulation measurement (HTRF); type: cell-based, rat
Protocol: For the cAMP assay, INS-1 cells (1.0 × 10^5 cells) were seeded and plated in each well of a 96-well opaque white plate. […] Subsequently, 10 μg of GLP-1 or complex was added. The assay plate was treated with 2.5 μl/well cAMP and an equal volume of anti-cAMP conjugate (Cisbio) after a 1 h incubation. The homogenous time-resolved fluorescence (HTRF) signal was read on a SpectraMax M5 (Molecular Device) microplate reader. The ratio of […] at 665 nm and 620 nm (×10,000) was calculated and plotted.

[4] = test system: blood glucose; assay: Single-dose glucoregulatory assay (glucose tolerance test); type: in vivo; conditions: Wistar rats, GLP-1 alone, glucose 2 g/kg i.p.
[5] = test system: blood glucose and HbA1c; assay: Long-term anti-diabetic activity (glucose, HbA1c) over 46 days; type: in vivo; conditions: ZDF rats, 250 μg/kg body weight every three days, glucometer
Protocol: Male ZDF rats (n = 11 per group) were treated with complex (250 μg/kg/3 days) for the entire experimental period (46 days). The control groups were injected with wild-type GLP-1 (250 μg/3 days). HbA1c levels were assessed using a DCA 200 analyzer (Bayer Diagnostics), and glucose levels were monitored during the experimental period.

[6] = test system: dipeptidyl peptidase IV (DPP-IV); conditions: cited from earlier work
Excerpt: The extremely poor serum stability renders the therapeutic administration of GLP-1 impractical; therefore, many efforts have focused on altering the pharmacokinetic properties of GLP-1 by developing a series of complexes and analogs, such as exenatide, liraglutide and albiglutide. […] In ad ...

[7] = target: hydrophobin E24K (mutated at the 24th residue)
[8] = target: wild-type hydrophobin protein (HGFI)

Substance: glucagon-like peptide-1 [GLP-1]
time after administration at which circulating GLP-1 was undetectable [1]: 4 h
insulin level at 5 min after oral glucose [2]: 827.09 ± 37.77 pmol/L
peak cellular cAMP level ([3]; INS-1 cells 1.0 × 10^5, 500 μM IBMX, 10 μg GLP-1, at 2 min, HTRF, mean ± SE): 17.03 ± 0.94 pmol/10^5 cells
time at which cAMP declined to baseline ([3]; INS-1 cells, HTRF-cAMP kit): 10 min
time of cAMP peak ([3]; INS-1 cells, HTRF-cAMP kit): 2 min
blood glucose in single-dose glucose tolerance test [4]: remained at high levels
long-lasting glucose regulatory effect [5]: failed to produce a similar glucose regulatory effect
renal clearance (time) ([6]; in vivo): less than 10 min
lifetime in vivo ([6]; native GLP-1, in vivo, inactivation by DPP-IV): < 2 min
serum stability of GLP-1 ([6]; rapid degradation by DPP-IV): 3 to 5 min

AUC of free GLP-1 in the serum of Wistar rats within 96 h after subcutaneous injection of the complex, fold over GLP-1 alone (GLP-1 (7-37) ELISA) [7]: 3 fold
AUC of free GLP-1 in the serum of Wistar rats within 96 h after subcutaneous injection of the complex, fold over GLP-1 alone (GLP-1 (7-37) ELISA) [8]: 6.3 fold
Substance: glucagon-like peptide-1 (GLP-1)
